± gives the standard deviation of the averaged measurements.
B1: library; a variant is named by its letters at N, in order (parent)
chain: AATGTTGTTGATGCAACCATAAAGTGATATTTAATAATTATTTATAATCAGCAACTTAACCACAAAACAACCATATATTGATATNTCACAAAACAACCATAANTTGATATTTTTGTGAATCGAGTATTTCAGCAAAACTACTGCAGTAAGAA

How the values were obtained:
[1] = variants of: B1; assay: relative integration efficiency (T-LR orientation) vs wild-type transposon end (log2 (normalized fold change)); transposon end mutated: left end; higher = more efficient transposition; settings: with VchCAST RNA-guided transposition machinery (E. coli BL21(DE3) host, lacZ target)
Method in brief: (§1)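 Barcoded pools of 1549 left-end or 1849 right-end transposon variants were cloned into a pUC57 mini-transposon donor. Each pool was co-transformed with a T7-driven effector plasmid (CRISPR array, tniQ-cas8-cas7-cas6, tnsA-tnsB-tnsC) into E. coli BL21(DE3) and plated with 0.1 mM IPTG at 37°C for 18 h. Input plasmids and genomic integration junctions were PCR-amplified and Illumina-sequenced, with two biological output replicates and four wild-type barcodes as reference. Relative integration efficiency is output/input barcode abundance fold change, normalised to wild-type barcodes and log-transformed.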

[2] = variants of: B1; assay: relative integration efficiency (T-RL orientation) vs wild-type transposon end (log2 (normalized fold change)); transposon end mutated: left end; higher = more efficient transposition; settings: with VchCAST RNA-guided transposition machinery (E. coli BL21(DE3) host, lacZ target)
Method in brief: as §1

Row | Variant | relative integration efficiency (log2) [1] | relative integration efficiency (log2) [2]
1 | AATGTTGTTGATGCAACCATATAGTGATATTTAATAATTATTTATAATCAGCAACTTAACCACAAAACAACCATAAATTGATATCTCACAAAACAACCATATGTTGATATTTTTGTGAATCGAGTATTTCAGCAAAACTACTGCAGTAAGAA [CG A22T T76A A102T] | 0.271 ± 0.39 | 0.269 ± 0.11
2 | AATGTTGTTGATGCAACCATACCGTGATATTTAATAATTATTTATAATCAGCAACTTAACCACAAAACAACCATATATTGATATCTCACAAAACAACCATAAGTTGATATTTTTGTGAATCGAGTATTTCAGCAAAACTACTGCAGTAAGAA [CG A22C A23C] | -1.74 ± 0.31 | -1.42 ± 0.42
3 | AATGTTGTTGATGCAACCATTAAGTGATATTTAATAATTATTTATAATCAGCAACTTAACCACAAAACAACCATTTATTGATATCTCACAAAACAACCATTAGTTGATATTTTTGTGAATCGAGTATTTCAGCAAAACTACTGCAGTAAGAA [CG A21T A75T A101T] | -1.38 ± 0.99 | -1.31 ± 0.37
4 | AATGTTGTTGATGCAACCATATATTGATATCTCATAATTATTTATAATCAGCAACTTAACCACAAAACACCCATAAATTGATAATTAACAAAACAACCATAAGTTGATATTTTTGTGAATCGAGTATTTCAGCAAAACTACTGCAGTAAGAA [TG A22T G24T T31C A33C A70C T76A T84A C87A] | -0.478 ± 0.83 | -0.488 ± 0.46
5 | AATGTTGTTGATGCAACCATATATTGATATCTCATAATTATTTATAATCAGCAACTTAACCACAAAACAACCATAAAGTGATATTTAACAAAACAACCATAAGTTGATATTTTTGTGAATCGAGTATTTCAGCAAAACTACTGCAGTAAGAA [TG A22T G24T T31C A33C T76A T78G C87A] | 1.14 ± 0.4 | 0.463 ± 0.49
6 | AATGTTGTTGATGCAACCATATATTGATATCTCATAATTATTTATAATCAGCAACTTAACCACAAAACAACCATAAAATGATAATTAACAAAACAACCATAAGTTGATATTTTTGTGAATCGAGTATTTCAGCAAAACTACTGCAGTAAGAA [TG A22T G24T T31C A33C T76A T78A T84A C87A] | -0.618 ± 0.17 | -0.5 ± 0.36
7 | AATGTTGTTGATGCAACCATACCTGGATATTTAATAATTATTTATAATCAGCAACTTAACCACAAAACAACCATATATTGATATCTCACAAAACAACCATAAGTTGATATTTTTGTGAATCGAGTATTTCAGCAAAACTACTGCAGTAAGAA [CG A22C A23C G24T T25G] | -2.32 ± 0.92 | -2.89 ± 0.82
8 | AATGTTGTTGATGCAACCATATATTGATATCTCATAATTATTTATAATCAGCAACTTAACCACAAAACACCCATAAATTGATATTGCACAAAACAACCATAAGTTGATATTTTTGTGAATCGAGTATTTCAGCAAAACTACTGCAGTAAGAA [TG A22T G24T T31C A33C A70C T76A T86G] | -0.285 ± 0.49 | -0.627 ± 0.19
9 | AATGTTGTTGATGCAACCATATTGTGATATTTAATAATTATTTATAATCAGCAACTTAACCACAAAACAACCATATATTGATATCTCACAAAACAACCATAAGTTGATATTTTTGTGAATCGAGTATTTCAGCAAAACTACTGCAGTAAGAA [CG A22T A23T] | -0.158 ± 0.56 | -0.421 ± 0.27
10 | AATGTTGTTGATGCAACCATATATTGATATCTCATAATTATTTATAATCAGCAACTTAACCACAAAACAACCATATATTGATATCTCACAAAACAACCATAAGTTGATATTTTTGTGAATCGAGTATTTCAGCAAAACTACTGCAGTAAGAA [CG A22T G24T T31C A33C] | -0.141 ± 0.18 | -0.0346 ± 0.14
11 | AATGTTGTTGATGCAACCATAACGTGATATTTAATAATTATTTATAATCAGCAACTTAACCACAAAACAACCATATATTGATATCTCACAAAACAACCATAAGTTGATATTTTTGTGAATCGAGTATTTCAGCAAAACTACTGCAGTAAGAA [CG A23C] | 0.494 ± 0.15 | -0.467 ± 0.23
12 | AATGTTGTTGATGCAACCATAAGGTGATATTTAATAATTATTTATAATCAGCAACTTAACCACAAAACAACCATATATTGATATCTCACAAAACAACCATAAGTTGATATTTTTGTGAATCGAGTATTTCAGCAAAACTACTGCAGTAAGAA [CG A23G] | 0.359 ± 0.084 | -0.0169 ± 0.11
13 | AATGTTGTTGATGCAACCATAACTGTATATTTAATAATTATTTATAATCAGCAACTTAACCACAAAACAACCATATATTGATATCTCACAAAACAACCATAAGTTGATATTTTTGTGAATCGAGTATTTCAGCAAAACTACTGCAGTAAGAA [CG A23C G24T T25G G26T] | -1.99 ± 0.63 | -1.12 ± 0.49
14 | AATGTTGTTGATGCAACCATATATTGATATCTCATAATTATTTATAATCAGCAACTTAACCACAAAACAACCATAAGTTGATATTTTACAAAACAACCATAAGTTGATATTTTTGTGAATCGAGTATTTCAGCAAAACTACTGCAGTAAGAA [TG A22T G24T T31C A33C T76A A77G C87T] | -0.123 ± 0.13 | -0.61 ± 0.41
15 | AATGTTGTTGATGCAACCATAGAGTGATATTTAATAATTATTTATAATCAGCAACTTAACCACAAAACAACCATATATTGATATCTCACAAAACAACCATAAGTTGATATTTTTGTGAATCGAGTATTTCAGCAAAACTACTGCAGTAAGAA [CG A22G] | -1.1 ± 1.1 | -0.733 ± 0.88
16 | AATGTTGTTGATGCAACCATACAGTGATATTTAATAATTATTTATAATCAGCAACTTAACCACAAAACAACCATATATTGATATCTCACAAAACAACCATAAGTTGATATTTTTGTGAATCGAGTATTTCAGCAAAACTACTGCAGTAAGAA [CG A22C] | -1.26 ± 0.71 | -1.07 ± 0.48
17 | AATGTTGTTGATGCAACCATATAGTGATATTTAATAATTATTTATAATCAGCAACTTAACCACAAAACAACCATATATTGATATCTCACAAAACAACCATAAGTTGATATTTTTGTGAATCGAGTATTTCAGCAAAACTACTGCAGTAAGAA [CG A22T] | 0.128 ± 0.29 | 0.0984 ± 0.17
18 | AATGTTGTTGATGCAACCATATTCAGATATTTAATAATTATTTATAATCAGCAACTTAACCACAAAACAACCATATATTGATATCTCACAAAACAACCATAAGTTGATATTTTTGTGAATCGAGTATTTCAGCAAAACTACTGCAGTAAGAA [CG A22T A23T G24C T25A] | -1.61 ± 0.58 | -1.21 ± 0.56
19 | AATGTTGTTGATGCAACCATAACTTGATATTTAATAATTATTTATAATCAGCAACTTAACCACAAAACAACCATATATTGATATCTCACAAAACAACCATAAGTTGATATTTTTGTGAATCGAGTATTTCAGCAAAACTACTGCAGTAAGAA [CG A23C G24T] | -0.153 ± 0.042 | -0.106 ± 0.064

— the supplement of paper PMC10201428
